Assay results published in patent US10407473B2, “Methods for treating disorders that involve immunoglobulin A” (UNIVERSITY OF MANITOBA, priority 2011, dated 2019).

B1: FDC-SP SN: supernatant of L cells transfected with FDC-SP expression vector, containing recombinant FDC-SP (protein, UniProt Q8NFU4 18-85, looked up)
Follicular dendritic cell …: FPVSQDQEREKRSISDSDELASGFFVFPYPYPFRPLPPIPFPRFPWFRRNFPIPIPESAPTTPLPSEK
modifications: in L cell culture supernatant
B2: FDC-SP: secreted immuno-modulatory polypeptide expressed by activated follicular dendritic cells (protein, UniProt Q8NFU4 18-85, looked up)
Follicular dendritic cell …: B1 Follicular dendritic cell …

Experiments:
[1] = tested on: mouse B cells stimulated to produce IgA; assay: IgA production by cultured, stimulated mouse splenic B cells (ELISA of supernatants, flow cytometry); type: cell-based; settings: FIG. 8, C57BL6 spleen B cells cultured 5 days with stimuli and a percentage of supernatant, vs Control SN
Text: A polypeptide of the present invention having immunoregulatory activity inhibits IgA production by B cells in vitro. Whether a polypeptide has immuno-modulatory activity may be determined by in vitro assays. An example of an in vitro assay is described in Example 1. The assay uses B cells, which in one embodiment may be a primary cell obtained from an animal, such as a mouse or human, or in another embodiment may be a B cell line. When obtained from an animal, B cells may be obtained from lymphoid tissues such as spleen, tonsil, and lymph node. […]
Single cell suspensions were generated from the indicated tissues and were pre-incubated with hybridoma supernatant containing Fc receptor blocking antibody. […] Data were analyzed using FlowJo software (TreeStar).
Serum, saliva and bronchoalveolar lavage fluid were collected from 10-14 week old FDC-SP-deficient mice, FDC-SP transgenic mice and strain, age and sex-matched controls. […] Total antibodies levels were determined by coating with anti-mouse IgM or IgA (Jackson ImmunoResearch Laboratories) and NP-specific antibodies levels were determined by coating plates with NP20-BSA (Biosearch Technologies). […]

[2] = tested on: T lymphoma cells; settings: secreted FDC-SP; cited from earlier work
[3] = Toxicity observation in FDC-SP transgenic mice; type: in vivo; settings: transgenic mice expressing increased levels of FDC-SP polypeptide
Text: FDC-SP transgenic CD1 mice (i.e., mice constitutively expressing FDC-SP in lymphoid tissues) were generated as described (Al-Alwan et al., 2007, J. Immunol., 178:7859-7867). All experimental animals were housed at the Central Animal Care Facility (University of Manitoba, Winnipeg, MB) in compliance with the guidelines established by the Canadian Council on Animal Care.

[4] = tested on: B lymphoma cells; settings: secreted FDC-SP; cited from earlier work

Row | Molecule | IgA production in vitro [1] | binding to the surface of T lymphoma cells [2] | toxicity associated with the polypeptide [3] | binding to the surface of B lymphoma cells [4]
1 | B1 | suppressed | – | – | –
2 | B2 | – | not | no evidence of toxicity | can bind
